Source: patent US11312781B2, “Antigen binding molecules that bind LIGHT” (Capella Bioscience Ltd., priority 2018, dated 2022)

Legend:
native trimeric LIGHT = molecular target: T1, native trimeric LIGHT (Homo sapiens, UniProt O43557, K214E); experiment: Binding ratio of mAbs bound to LIGHT by native mass spectrometry; details: LIGHT incubated 1:5 molar ratio (protein:antibody)
T1 construct: amino acids 74-240 LIGHT (R&D Systems, 664-LI-025); purchased R&D Systems 664-LI-025
Protocol: The LIGHT protein (R&D Systems 664-LI-025) was solubilised in PBS buffer at a final concentration of 4 μM, whereas the mAbs were maintained at 20 μM in PBS. The samples were buffer exchanged into ammonium acetate pH 7.4 at different concentrations via a column with a cut-off of 40 kDa prior to mass spectrometry optimisation. […] Samples were stored at 4° C. and were used within one week. The antibodies were diluted to 1 μM prior to MSanalysis. For complex formation the LIGHT protein was incubated with each antibody separately in 1:5 ratio on ice and native mass measurements were performed 30 min after incubation.
Nano electrospray ionization measurements were performed using a Q Exactive hybrid quadrupole-Orbitrap mass spectrometer (Thermo Fisher Scientific) modified for the transmission and detection of high m/z ions. […] Elevated pressure was applied in the front optics and mass spectra were recorded at optimized collision energy. […] Data were analysed with Xcaliber software and deconvoluted manually.
Native mass spectroscopy was utilised to determine the ratio of mAb bound to native trimeric LIGHT. The measured mass of 3B04 (IgG4) was 147256±0.7 Da and the F19 anti-LIGHT mAb, (IgG4 mAb from EP2292663) was 147364±6.6 Da. […] Two major populations of the light protein were recorded with measured masses of 68 kDa and 71 kDa. […]

LIGHT protein = molecular target: T2, LIGHT protein (Homo sapiens, UniProt O43557, K214E); experiment: Hydrogen-deuterium exchange (HDX) mass spectrometry epitope mapping; format: binding; set-up: Difference uptake (3B04-control) / Uptake 3B04: unit not given here; details: for Uptake 3B04: average deuterium uptake n = 3
T2 construct: amino acids 74-240 LIGHT (R&D Systems, 664-LI-025); purchased R&D Systems 664-LI-025
T2 sequence (O43557 74-240 K214E): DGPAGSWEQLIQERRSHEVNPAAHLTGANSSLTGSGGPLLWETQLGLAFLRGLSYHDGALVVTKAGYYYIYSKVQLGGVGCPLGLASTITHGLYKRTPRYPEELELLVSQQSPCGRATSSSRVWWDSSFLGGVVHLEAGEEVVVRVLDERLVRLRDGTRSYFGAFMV
Protocol: The LIGHT protein (R&D Systems 664-LI-025) was solubilised in PBS buffer at a final concentration of 8 μM, whereas the antibodies were maintained at 20 μM in PBS. For complex formation the LIGHT protein was incubated with each antibody separately in 1:5 ratio on ice and HDX measurements were performed 30 min after incubation. All data were recorded on a waters Synapt G2Si equipped with a HDX platform. […] […] Subsequently each sample was quenched with 50 μL of 2M guanidinium chloride in at pH 2. The samples were passed through a pepsin column for 5 min to digest the protein and peptides were separated using a reverse phase chromatography. Data were analysed with DynamX software. Peptides were selected with a maximum length of 15 amino acids and a 5 ppm mass accuracy error. […] The analysis was repeated 3 times for each mAb.
HDX was used as a starting point to identify the epitope of antibody 3B04 binding to the LIGHT protein. A sequence coverage of 69.2% of the LIGHT protein was achieved and the regions that were not observed were due to the presence of a […] and glycosylation. The glycans were not removed from LIGHT in order to preserve the structure of the protein in a native state. […] (Difference in uptake between 3B04 and control mAb, Table 16, values in bold). […] The results from HDX spectrometry were used as a guide to identify a region of interest that was subsequently analysed using alanine scanning.

[1] = LIGHT peptide 194-202 SRVWWDSSF, Exposure (sec) 0.33
[2] = LIGHT peptide 194-202 SRVWWDSSF, Exposure (sec) 1.00
[3] = LIGHT peptide 194-202 SRVWWDSSF, Exposure (sec) 5.00
[4] = LIGHT peptide 194-202 SRVWWDSSF, Exposure (sec) 30.00
[5] = LIGHT peptide 195-202 RVWWDSSF, Exposure (sec) 0.33
[6] = LIGHT peptide 195-202 RVWWDSSF, Exposure (sec) 1.00
[7] = LIGHT peptide 195-202 RVWWDSSF, Exposure (sec) 5.00
[8] = LIGHT peptide 195-202 RVWWDSSF, Exposure (sec) 30.00
[9] = LIGHT peptide 197-202 WWDSSF, Exposure (sec) 0.33
[10] = LIGHT peptide 197-202 WWDSSF, Exposure (sec) 1.00
[11] = LIGHT peptide 197-202 WWDSSF, Exposure (sec) 5.00
[12] = LIGHT peptide 197-202 WWDSSF, Exposure (sec) 30.00
[13] = LIGHT peptide 203-209 LGGVVHL, Exposure (sec) 0.33
[14] = LIGHT peptide 203-209 LGGVVHL, Exposure (sec) 1.00
[15] = LIGHT peptide 203-209 LGGVVHL, Exposure (sec) 5.00
[16] = LIGHT peptide 203-209 LGGVVHL, Exposure (sec) 30.00
[17] = LIGHT peptide 203-214 LGGVVHLEAGEE, Exposure (sec) 0.33
[18] = LIGHT peptide 203-214 LGGVVHLEAGEE, Exposure (sec) 1.00
[19] = LIGHT peptide 203-214 LGGVVHLEAGEE, Exposure (sec) 5.00
[20] = LIGHT peptide 203-214 LGGVVHLEAGEE, Exposure (sec) 30.00

T1 sequence (O43557 74-240 K214E): as above

B1: 3B04: parental mouse anti-membrane LIGHT antibody, VL SEQ ID NO 1, VH SEQ ID NO 5; tested as chimeric human IgG4 mAb (antibody, listed as Homo sapiens, V domains shown)
VH: QVQLQQPGAELVRPGASVTLSCKASGYTFTDYEMHWVKQTPVHGLEWIGEIDPETGDTAYSQKFKGKATLTADKSSSTAYMEFRSLTSEDSAVYYCSRETDYFFDYWGQGTTLTVSS
VL: DIQMTQTPASLSASVGETVTITCGASENIYGALNWYQRKQGKSPQLLIYGATNLADGMSSRFSGSGSGRQYSLKISSLHPDDFATYYCQNVLTTPWTFGGGTKLEIKR
Stoichiometry of mAb bound to native trimeric LIGHT (antibody:LIGHT trimer) (native trimeric LIGHT): one antibody per one LIGHT protein | Difference uptake (3B04-control) (LIGHT protein; [1]): −0.296 | Uptake 3B04 (LIGHT protein; [1]): 0.744 | Difference uptake (3B04-control) (LIGHT protein; [2]): −0.443 | Uptake 3B04 (LIGHT protein; [2]): 0.885 | Difference uptake (3B04-control) (LIGHT protein; [3]): −0.405 | Uptake 3B04 (LIGHT protein; [3]): 1.159 | Difference uptake (3B04-control) (LIGHT protein; [4]): −0.656 | Uptake 3B04 (LIGHT protein; [4]): 1.392 | Difference uptake (3B04-control) (LIGHT protein; [5]): −0.254 | Uptake 3B04 (LIGHT protein; [5]): 0.393 | Difference uptake (3B04-control) (LIGHT protein; [6]): −0.399 | Uptake 3B04 (LIGHT protein; [6]): 0.480 | Difference uptake (3B04-control) (LIGHT protein; [7]): −0.474 | Uptake 3B04 (LIGHT protein; [7]): 0.631 | Difference uptake (3B04-control) (LIGHT protein; [8]): −0.756 | Uptake 3B04 (LIGHT protein; [8]): 0.805 | Difference uptake (3B04-control) (LIGHT protein; [9]): −0.187 | Uptake 3B04 (LIGHT protein; [9]): 0.240 | Difference uptake (3B04-control) (LIGHT protein; [10]): −0.269 | Uptake 3B04 (LIGHT protein; [10]): 0.336 | Difference uptake (3B04-control) (LIGHT protein; [11]): −0.217 | Uptake 3B04 (LIGHT protein; [11]): 0.501 | Difference uptake (3B04-control) (LIGHT protein; [12]): −0.252 | Uptake 3B04 (LIGHT protein; [12]): 0.603 | Difference uptake (3B04-control) (LIGHT protein; [13]): −0.029 | Uptake 3B04 (LIGHT protein; [13]): 0.145 | Difference uptake (3B04-control) (LIGHT protein; [14]): −0.027 | Uptake 3B04 (LIGHT protein; [14]): 0.147 | Difference uptake (3B04-control) (LIGHT protein; [15]): −0.014 | Uptake 3B04 (LIGHT protein; [15]): 0.237 | Difference uptake (3B04-control) (LIGHT protein; [16]): −0.052 | Uptake 3B04 (LIGHT protein; [16]): 0.384 | Difference uptake (3B04-control) (LIGHT protein; [17]): −0.050 | Uptake 3B04 (LIGHT protein; [17]): 0.202 | Difference uptake (3B04-control) (LIGHT protein; [18]): −0.033 | Uptake 3B04 (LIGHT protein; [18]): 0.266 | Difference uptake (3B04-control) (LIGHT protein; [19]): −0.087 | Uptake 3B04 (LIGHT protein; [19]): 0.399 | Difference uptake (3B04-control) (LIGHT protein; [20]): −0.081 | Uptake 3B04 (LIGHT protein; [20]): 0.807 | Epitope defined by HDX (LIGHT protein; soluble LIGHT): residues 195-197 of soluble LIGHT
